Data from patent US20260217793A1 (Chugai, published 2026).

B1: IL6R-BP552/IL6R-L (antibody, human IgG1, kappa)
heavy: QVQLQESGPGLVKPSETLSLTCAVSGHSISHDHAWSWVRQPPGEGLEWIGFISYSGITNYNPSLQGRVTISRDNSKNTLYLQMNSLRAEDTAVYYCARSLARTTAMDYWGEGTLVTVSSASTKGPSVFPLAPSSKSTSGGTAALGCLVKDYFPEPVTVSWNSGALTSGVHTFPAVLQSSGLYSLSSVVTVPSSSLGTQTYICNVNHKPSNTKVDKKVEPKSCDKTHTCPPCPAPDLLGDDSVFLFPPKPKDTLMISRTPEVTCVVIDVAEEDGDVKFNWYVDGVEVHNAKTKPREEQDNSTYRVVSVLTVLHQDWLNGKEYKCKVSNKALPRPIEKTISKAKGQPREPQVYTLPPSRDELTKNQVSLTCLVKGFYPSDIAVEWESNGQPENNYKTTPPVLDSDGSFFLYSKLTVDKSRWQQGNVFSCSVMHEALHNHYTQESLSLSP
light: not shown
B2: IL6R-BP553/IL6R-L (antibody, human IgG1, kappa)
heavy: QVQLQESGPGLVKPSETLSLTCAVSGHSISHDHAWSWVRQPPGEGLEWIGFISYSGITNYNPSLQGRVTISRDNSKNTLYLQMNSLRAEDTAVYYCARSLARTTAMDYWGEGTLVTVSSASTKGPSVFPLAPSSKSTSGGTAALGCLVKDYFPEPVTVSWNSGALTSGVHTFPAVLQSSGLYSLSSVVTVPSSSLGTQTYICNVNHKPSNTKVDKKVEPKSCDKTHTCPPCPAPDLLGDDSVFLFPPKPKDTLMISRTPEVTCVVIDVAEEDGDVKFNWYVDGVEVHNAKTKPREEQYNSTYRVVSVLTVLHQDWLNGKEYKCKVSNKALPRPIEKTISKAKGQPREPQVYTLPPSRDELTKNQVSLTCLVKGFYPSDIAVEWESNGQPENNYKTTPPVLDSDGSFFLYSKLTVDKSRWQQGNVFSCSVMHEALHNHYTQESLSLSP
light: not shown
B3: IL6R-BP532/IL6R-L (antibody, human IgG1, kappa)
heavy: QVQLQESGPGLVKPSETLSLTCAVSGHSISHDHAWSWVRQPPGEGLEWIGFISYSGITNYNPSLQGRVTISRDNSKNTLYLQMNSLRAEDTAVYYCARSLARTTAMDYWGEGTLVTVSSASTKGPSVFPLAPSSKSTSGGTAALGCLVKDYFPEPVTVSWNSGALTSGVHTFPAVLQSSGLYSLSSVVTVPSSSLGTQTYICNVNHKPSNTKVDKKVEPKSCDKTHTCPPCPAPDLLGDDSVFLFPPKPKDTLMISRTPEVTCVVIDVSEEDGEVKFNWYVDGVEVHNAKTKPREEQDNSTYRVVSVLTVLHQDWLNGKEYKCKVSNKALPRPIEKTISKAKGQPREPQVYTLPPSRDELTKNQVSLTCLVKGFYPSDIAVEWESNGQPENNYKTTPMVLDSDGSFFLYSKLTVDKSRWQQGNVFSCSVMHEALHNHYTQESLSLSP
light: not shown
B4: IL6R-BP531/IL6R-L (antibody, human IgG1, kappa)
heavy: QVQLQESGPGLVKPSETLSLTCAVSGHSISHDHAWSWVRQPPGEGLEWIGFISYSGITNYNPSLQGRVTISRDNSKNTLYLQMNSLRAEDTAVYYCARSLARTTAMDYWGEGTLVTVSSASTKGPSVFPLAPSSKSTSGGTAALGCLVKDYFPEPVTVSWNSGALTSGVHTFPAVLQSSGLYSLSSVVTVPSSSLGTQTYICNVNHKPSNTKVDKKVEPKSCDKTHTCPPCPAPDLLGDDSVFLFPPKPKDTLMISRTPEVTCVVIDVGEEDGEVKFNWYVDGVEVHNAKTKPREEQDNSTYRVVSVLTVLHQDWLNGKEYKCKVSNKALPRPIEKTISKAKGQPREPQVYTLPPSRDELTKNQVSLTCLVKGFYPSDIAVEWESNGQPENNYKTTPMVLDSDGSFFLYSKLTVDKSRWQQGNVFSCSVMHEALHNHYTQESLSLSP
light: not shown
B5: IL6R-BP555/IL6R-L (antibody, human IgG1, kappa)
heavy: QVQLQESGPGLVKPSETLSLTCAVSGHSISHDHAWSWVRQPPGEGLEWIGFISYSGITNYNPSLQGRVTISRDNSKNTLYLQMNSLRAEDTAVYYCARSLARTTAMDYWGEGTLVTVSSASTKGPSVFPLAPSSKSTSGGTAALGCLVKDYFPEPVTVSWNSGALTSGVHTFPAVLQSSGLYSLSSVVTVPSSSLGTQTYICNVNHKPSNTKVDKKVEPKSCDKTHTCPPCPAPELLGDDSVFLFPPKPKDTLMISRTPEVTCVVIDVAEEDGDVKFNWYVDGVEVHNAKTKPREEQDNSTYRVVSVLTVLHQDWLNGKEYKCKVSNKALPRPIEKTISKAKGQPREPQVYTLPPSRDELTKNQVSLTCLVKGFYPSDIAVEWESNGQPENNYKTTPPVLDSDGSFFLYSKLTVDKSRWQQGNVFSCSVMHEALHNHYTQESLSLSP
light: not shown
B6: IL6R-BP535/IL6R-L (antibody, human IgG1, kappa)
heavy: QVQLQESGPGLVKPSETLSLTCAVSGHSISHDHAWSWVRQPPGEGLEWIGFISYSGITNYNPSLQGRVTISRDNSKNTLYLQMNSLRAEDTAVYYCARSLARTTAMDYWGEGTLVTVSSASTKGPSVFPLAPSSKSTSGGTAALGCLVKDYFPEPVTVSWNSGALTSGVHTFPAVLQSSGLYSLSSVVTVPSSSLGTQTYICNVNHKPSNTKVDKKVEPKSCDKTHTCPPCPAPDLLGDDSVFLFPPKPKDTLMISRTPEVTCVVIDVGEEDGEVKFNWYVDGVEVHNAKTKPREEQDNSTYRVVSVLTVLHQDWLNGKEYKCKVSNKGLPRPIEKTISKAKGQPREPQVYTLPPSRDELTKNQVSLTCLVKGFYPSDIAVEWESNGQPENNYKTTPMVLDSDGSFFLYSKLTVDKSRWQQGNVFSCSVMHEALHNHYTQESLSLSP
light: not shown
B7: IL6R-BP534/IL6R-L (antibody, human IgG1, kappa)
heavy: QVQLQESGPGLVKPSETLSLTCAVSGHSISHDHAWSWVRQPPGEGLEWIGFISYSGITNYNPSLQGRVTISRDNSKNTLYLQMNSLRAEDTAVYYCARSLARTTAMDYWGEGTLVTVSSASTKGPSVFPLAPSSKSTSGGTAALGCLVKDYFPEPVTVSWNSGALTSGVHTFPAVLQSSGLYSLSSVVTVPSSSLGTQTYICNVNHKPSNTKVDKKVEPKSCDKTHTCPPCPAPDLLGDDSVFLFPPKPKDTLMISRTPEVTCVVIDVSEEDGEVKFNWYVDGVEVHNAKTKPREEQDNSTYRVVSVLTVLHQDWLNGKEYKCKVSNKALPRPIEKTISKAKGQPREPQVYTLPPSRDELTKNQVSLTCLVKGFYPSDIAVEWESNGQPENNYKTTPLVLDSDGSFFLYSKLTVDKSRWQQGNVFSCSVMHEALHNHYTQESLSLSP
light: not shown
B8: IL6R-BP537/IL6R-L (antibody, human IgG1, kappa)
heavy: QVQLQESGPGLVKPSETLSLTCAVSGHSISHDHAWSWVRQPPGEGLEWIGFISYSGITNYNPSLQGRVTISRDNSKNTLYLQMNSLRAEDTAVYYCARSLARTTAMDYWGEGTLVTVSSASTKGPSVFPLAPSSKSTSGGTAALGCLVKDYFPEPVTVSWNSGALTSGVHTFPAVLQSSGLYSLSSVVTVPSSSLGTQTYICNVNHKPSNTKVDKKVEPKSCDKTHTCPPCPAPELLGDDSVFLFPPKPKDTLMISRTPEVTCVVIDVGEEDGEVKFNWYVDGVEVHNAKTKPREEQYNSTYRVVSVLTVLHQDWLNGKEYKCKVSNKALPRPIEKTISKAKGQPREPQVYTLPPSRDELTKNQVSLTCLVKGFYPSDIAVEWESNGQPENNYKTTPPVLDSDGSFFLYSKLTVDKSRWQQGNVFSCSVMHEALHNHYTQESLSLSP
light: not shown
B9: IL6R-BP554/IL6R-L (antibody, human IgG1, kappa)
heavy: QVQLQESGPGLVKPSETLSLTCAVSGHSISHDHAWSWVRQPPGEGLEWIGFISYSGITNYNPSLQGRVTISRDNSKNTLYLQMNSLRAEDTAVYYCARSLARTTAMDYWGEGTLVTVSSASTKGPSVFPLAPSSKSTSGGTAALGCLVKDYFPEPVTVSWNSGALTSGVHTFPAVLQSSGLYSLSSVVTVPSSSLGTQTYICNVNHKPSNTKVDKKVEPKSCDKTHTCPPCPAPELLGDDSVFLFPPKPKDTLMISRTPEVTCVVIDVAEEDGDVKFNWYVDGVEVHNAKTKPREEQYNSTYRVVSVLTVLHQDWLNGKEYKCKVSNKALPRPIEKTISKAKGQPREPQVYTLPPSRDELTKNQVSLTCLVKGFYPSDIAVEWESNGQPENNYKTTPPVLDSDGSFFLYSKLTVDKSRWQQGNVFSCSVMHEALHNHYTQESLSLSP
light: not shown

The binders below were run against human FcγRIIIa type V (Val158) extracellular domain with C-terminal His tag (human, UniProt P08637 17-208) (assay: SPR).
human FcγRIIIa type V (Val158) extracellular domain with C-terminal His tag, sequence (P08637 17-208 F176V): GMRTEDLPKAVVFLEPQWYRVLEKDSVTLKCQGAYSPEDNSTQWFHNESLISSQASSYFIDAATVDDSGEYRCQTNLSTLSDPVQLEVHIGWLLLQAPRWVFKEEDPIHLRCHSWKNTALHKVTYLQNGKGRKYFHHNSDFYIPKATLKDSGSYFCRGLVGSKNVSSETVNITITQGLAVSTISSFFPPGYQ

Row | Binder | Kd
1 | B1 | 30 µM
2 | B2 | 20 µM
3 | B3 | 26 µM
4 | B4 | 27 µM
5 | B5 | 30 µM
6 | B6 | 33 µM
7 | B7 | 25 µM
8 | B8 | 36 µM
9 | B9 | 24 µM
